Six molecules from PMC6085627 can be followed below.

Assay [1] addresses Human TLR4/MD-2 complex (human), O00206. Description: SPR; Biacore T200; TLR4/MD-2 amine-coupled on CM5 (1100 RU); GST-A-box, GST-B-box (150-5000 nM), A-box or GST injected at 30 μL/min for 60 s, 25 °C, dissociation 1 min; HBS-EP pH 7.4; GST-A-box: association and dissociation fitted separately to a 1:1 model; GST-B-box: steady-state affinity model; apparent KD. For orientation: Surface plasmon resonance follows binding to a sensor surface in real time, without labels.

Assay [2] deals with human TLR4 (human), O00206. Description: SPR; Biacore T200; TLR4 amine-coupled on CM5 (800 RU); GST-A-box (310-10,000 nM), GST-B-box (1 and 5 μM), A-box or GST injected at 30 μL/min for 60 s, 25 °C, dissociation 2 min; HBS-EP pH 7.4; 1:1 binding supposed; apparent KD.
Assay [3] addresses Human TLR4/MD-2 complex (human), O00206. The experiment in a line: SPR; TLR4/MD-2 complex or TLR4 coated on a CM5 chip; A-box protein injected as analyte (0-5 µM on TLR4/MD-2, 0-10 µM on TLR4); Biacore T200, HBS-EP buffer pH 7.4.
Target sequence in this assay (O00206 24-631, chain 1 of 2, one chain of several): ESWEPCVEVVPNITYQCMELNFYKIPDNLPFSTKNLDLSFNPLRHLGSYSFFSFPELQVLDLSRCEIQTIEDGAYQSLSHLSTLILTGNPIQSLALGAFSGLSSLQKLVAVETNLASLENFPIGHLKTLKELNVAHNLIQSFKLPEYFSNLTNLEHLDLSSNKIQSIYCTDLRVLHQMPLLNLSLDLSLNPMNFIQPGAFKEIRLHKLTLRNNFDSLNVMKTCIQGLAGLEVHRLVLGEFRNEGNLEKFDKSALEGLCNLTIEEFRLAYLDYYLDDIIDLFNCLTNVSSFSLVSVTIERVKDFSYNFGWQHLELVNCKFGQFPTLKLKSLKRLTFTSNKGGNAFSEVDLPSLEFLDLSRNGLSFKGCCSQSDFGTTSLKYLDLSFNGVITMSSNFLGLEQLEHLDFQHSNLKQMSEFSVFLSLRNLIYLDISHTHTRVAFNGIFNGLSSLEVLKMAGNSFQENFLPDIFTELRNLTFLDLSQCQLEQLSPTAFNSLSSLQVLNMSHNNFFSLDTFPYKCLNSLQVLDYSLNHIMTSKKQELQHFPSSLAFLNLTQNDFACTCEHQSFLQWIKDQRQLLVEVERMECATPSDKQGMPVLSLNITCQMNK
The target of assay [4] is Human TLR4 (rhTLR4) (human), O00206. The assay is described as above.
In another assay the target is Recombinant GST-A-box. The experiment in a line: SPR; Biacore T200; GST-A-box (750 RU) or GST-B-box (1000 RU) amine-coupled on CM5; MD-2 injected (17-500 nM) at 30 μL/min for 60 s, 25 °C, dissociation 1 min; HBS-EP pH 7.4; steady-state affinity model; apparent KD.
Another assay deals with Recombinant GST-B-box. Described as above.
Assay [5] addresses human TLR4 (human), O00206. The experiment in a line: SPR; Biacore T200; rhTLR4 amine-coupled on CM5 (~800 RU); HMGB1 isoforms injected at 30 μL/min for 60 s, 25 °C, dissociation 1-2 min; HBS-EP pH 7.4; 1:1 binding supposed; apparent KD. The note with it: remark: other sources report otherwise.

Sequence of human TLR4 (human), O00206 (O00206 24-631): as the sequence (O00206 24-631, chain 1 of 2, one chain of several) above
Sequence of Human TLR4 (rhTLR4) (human), O00206 (O00206 24-631): as the sequence (O00206 24-631, chain 1 of 2, one chain of several) above

B1: Recombinant GST-A-box (domain or fragment)
chain: PRGKMSSYAFFVQTCREEHKKKHPDASVNFSEFSKKCSERWKTMSAKEKGKFEDMAKADKARYEREMKTYI
modifications: not checked
As for B1, in assay [1], the Kd is 1210 nM, the off-rate constant (koff) was found to be 0.037 s⁻¹ and the kon was 30800 M⁻¹ s⁻¹. In assay [2], the Kd worked out at 590 nM, the off-rate constant (koff) came out at 0.013 s⁻¹ and the kon was 22000 M⁻¹ s⁻¹.

B2: Recombinant A-box without GST tag (HMGB1 A-box domain) (domain or fragment)
chain: PRGKMSSYAFFVQTCREEHKKKHPDASVNFSEFSKKCSERWKTMSAKEKGKFEDMAKADKARYEREMKTYI
modifications: not checked
In the case of B2, the results for the Kd in assay [3] and in assay [4] were 1550 nM and 1030 nM, respectively.

B3: human MD-2, Q9Y6Y9 19-160 (natural protein)
chain: QKQYWVCNSSDASISYTYCDKMQYPISINVNPCIELKRSKGLLHIFYIPRRDLKQLYFNLYITVNTMNLPKRKEVICRGSDDDYSFCRALKGETVNTTISFSFKGIKFSKGKYKCVVEAISGSPEEMLFCLEFVILHQPNSN
For the molecule B3, the Kd with Recombinant GST-A-box is 3250 nM.

B4: human MD-2 (natural protein)
chain: QKQYWVCNSSDASISYTYCDKMQYPISINVNPCIELKRSKGLLHIFYIPRRDLKQLYFNLYITVNTMNLPKRKEVICRGSDDDYSFCRALKGETVNTTISFSFKGIKFSKGKYKCVVEAISGSPEEMLFCLEFVILHQPNSN
Regarding B4, the Kd in the assay with Recombinant GST-B-box came to 1410 nM.

B5: disulfide HMGB1 (High Mobility Group Box 1), P63159 1-215 (natural protein)
chain: MGKGDPKKPRGKMSSYAFFVQTCREEHKKKHPDASVNFSEFSKKCSERWKTMSAKEKGKFEDMAKADKARYEREMKTYIPPKGETKKKFKDPNAPKRPPSAFFLFCSEYRPKIKGEHPGLSIGDVAKKLGEMWNNTAADDKQPYEKKAAKLKEKYEKDIAAYRAKGKPDAAKKGVVKAEKSKKKKEEEDDEEDEEDEEEEEEEEDEDEEEDDDDE
modifications: here or on the partner: disulfide bond between C23 and C45
As to B5, in assay [5], the Kd was found to be 640 nM, the fold slower dissociation rate than reduced HMGB1 came out at 2 fold and the koff was found to be 0.128 s⁻¹.

B6: DTT reduced HMGB1, P63159 1-215 (natural protein)
chain: MGKGDPKKPRGKMSSYAFFVQTCREEHKKKHPDASVNFSEFSKKCSERWKTMSAKEKGKFEDMAKADKARYEREMKTYIPPKGETKKKFKDPNAPKRPPSAFFLFCSEYRPKIKGEHPGLSIGDVAKKLGEMWNNTAADDKQPYEKKAAKLKEKYEKDIAAYRAKGKPDAAKKGVVKAEKSKKKKEEEDDEEDEEDEEEEEEEEDEDEEEDDDDE
modifications: here or on the partner: cysteines reduced with DTT (no C23-C45 disulfide)
B6: the Kd in assay [5] came out at 650 nM.

In general, koff refers to the first-order rate constant of dissociation. What is called kon is the rate constant with which the complex forms.
